Source: publication PMC8564334

System: Histone H3;Histone H4 (His6-TEV) (Drosophila melanogaster;Drosophila melanogaster)
Experiment: restriction enzyme protection
Details: purified tetrasome, Wheat germ cell-free co-expression with NAP1 at 26 C for 6 h, TALON purification in 10 mM Tris/HCl pH 7.4, 40 mM NaCl (elution 250 mM imidazole), 6% native …

601_185bp
binding signal (% protection from PmlI) (37 C): 81
binding signal (% protection from BsiWI) (55 C): 93.6
